Test results published in the DeepSol protein solubility set.

Experiment: soluble on expression in E. coli; label from the status in PepcDB or PDB records
In the case of “GPGSHQIRLLPLTDGFGDASMAGGTSAKIVSPMPGKVSKFLVNSGDFVEKGQALMIVEAMKMEHPVKALQDGQVSFLVKEGEVVGSDHVLATVVQKE”, the “soluble on expression in E. coli” value is reported as “soluble”.
In the case of “MQYKLILNGKTLKGETTTEAVDAATAEKVFKQYANDNGVDGEWTYDDATKTFTVTEGSHHHHHHMHRDSCPLDCKVYVGNLGNNGNKTELERAFGYYGPLRSVWVARNPPGFAFVEFEDPRDAADAVRELDGRTLCGCRVRVELSNGEKR”, the “soluble on expression in E. coli” value is reported as “soluble”.
For “MGTNLPTEVGQILSAPTSIDYNYPTTGVWDASYDICLDSTPKTTGVNQQEIMIWFNHQGSIQPVGSPVGNTTIEGKNFVVWDGSNGMNNAMAYVATEPIEVWSFDVMSFVDHTATMEPITDSWYLTSIRAGLEPWSDGVGLGVDSFSAKVN”, the “soluble on expression in E. coli” value was “soluble”.
With “MIKEAIKQLAQDIGISKIGFTTADDFDYLEKSLRASVEEGRSSGFEHKNIEERIKPRLSLASAKTIISIAIAYPHKLPVKPPKTQYKRGKITPNSWGLDYHYVLEEKLQRLAQGIESLCQDFPLEHKIMVDTGALVDTAVAQRSGIGFIGKNGLVISKEFGSYMYLGELITNLEIEPDSPVDYDCGDCHRCLDACPTSCLLGDGSMNAKRCLSFQTQDKGMMDLEFRKKIKTVIYGCDICQICCPYNKGIHNPLASEIDPELAEPELLPFLELSNSQFKKKFGMIAGSWRGKNTLQRNAIIALANGHDKSALVKLMEIIDKNNNPIHTATAIWALGEIVKKPTQELYDFILSIHSDNDAIIKERTALLNRWQF” the “soluble on expression in E. coli” value was “not soluble”.
For “MKEKVVSLAQDLIRRPSISPNDEGCQQIIAERLEKLGFQIEWMPFNDTLNLWAKHGTSEPVIAFAGHTDVVPTGDENQWSSPPFSAEIIDGMLYGRGAADMKGSLAAMIVAAEEYVKANPNHKGTIALLITSDEEATAKDGTIHVVETLMARDEKITYCMVGEPSSAKNLGDVVKNGRRGSITGNLYIQGIQGHVAYPHLAENPIHKAALFLQELTTYQWDKGNEFFPPTSLQIANIHAGTGSNNVIPAELYIQFNLRYCTEVTDEIIKQKVAEMLEKHNLKYRIEWNLSGKPFLTKPGKLLDSITSAIEETIGITPKAETGGGTSDGRFIALMGAEVVEFGPLNSTIHKVNECVSVEDLGKCGEIYHKMLVNLLDS”, the “soluble on expression in E. coli” value was “soluble”.
For “MAIQFIVSNKYTAEVSKQLNDSQNWVLDSGIYYEDHNNHIVSSPINSATKPQNTREEWLWIPPHCQVVVCSTSSLKSFLGCKASEDLDRVFGDHPLWLDQLRPLSNLLENSLIDLLSRAPFEQSSKRNIQSMERGNPVMNWNVMQVEEEDTRGEQRVAASSSLSSSFDWNTFLRDRCGLSEEDVAYCFRKLSRFGRVSLSRLNEDSLLRMGINDPTVIAKLLIGITEEFS”, the “soluble on expression in E. coli” value was “not soluble”.
In the case of “MYPKQFLKFGETSLFQETVLRCLEVSDISEVFVVTNEAQKFFVIGQIKEAGYSIPPENILIEPEGKNTLPAIFFGMKEIEKKFGDSIVGVFSSDHVLDRAAMATISSAENLASDYLVTFGVVPTFPHTGYGYIKASEACSPGYRVSEFREKPDFETAKKYIEEGCLWNSGMFLFETRLFFEEARKHAPSVYGCFEKEGDINQIYECVDNISIDYGIMEKSDKVAVVRLDHKWSDLGNFAAIYDELEKDSVGNVIHDCDPMLLNSDGNLVYSRCGKIVSLIDVKDMVVVDTSDALLICPKSSSQKVKEIVSELKGRKDERAFIGQTVYRPWGSYTLLDASPGHKIKNITVLSDHKLSLQLHYHRSEHWVVVKGMACVEVDGKQFFLGPGESTFIRAGQKHRLSNPGKLPLEIIEVQLGELVDEEDIVRFDDVYGRRLEHHHHHH”, the “soluble on expression in E. coli” value is reported as “soluble”.
In the case of “MGLTFENNTIENFDVQATFGMMNFLEVVAINERDGENNVTEEVREQRVTVYSSKLNDQVEIVIDPDYDVSGINYDDEIELTGNVTARGWLYTFKGYNDNVQTEQAFKVRAAGIKKVGAVKQTQAPQPKEKQENKQ”, the “soluble on expression in E. coli” value is reported as “not soluble”.
For “MWKIELSDWTDDEFKHIVDFFTNQNILQPLETRRVRYLEMLLFNRSFMIFFPNIIDNHPELFMPCKARPNPPDVPIAVRVFTFEDRKMVMRSELFKAINMKYPNRKPIEYNDVNGFLYAMELKDVFKNFGDLWHDIDFLNTPINRTNQKAVPIITSTGDFCIPGFRAFSEIFYLMSLIMRVFQKVKINSMHVLDDYIKILVSQLEPFLKSQCFITTDAFQKIEQEMCNYWKKFENIPVKDIRDVKRFTLNDLKKELKYLGITEAFPDVLVYADLAFPKLLESVSQNKLETIDMFEAVAECTYCCLLDKYLELVQVWFPQFGSHKMFCSILPPDPVDIFLGVSSSHKDLRRYIKGEDKENMKVKDTSNPQVMKNQRENPKSISKPEGNNSDTPTESGNSSSSKVESSMANCTDCSGVRKEMKTVQNVLKDVQTQLTTMKHKSEKFEKNMTGSVERSKKAEQRLQEEKLDHVKIQVEAKKKLELKLEEVETWKKQVSALWNCKSDHEALNTKLSKCVEKGKKLKEINEKVSNSRDQLSTKVFELKLQLNRELETAETLKNERKDSAKLRNEVNQLKDQLEREREIAYGLQEEASKLRVGTGKDVKRQILESENAQLRQEKQRREMEKSSLLETKMILSRQNEEQHKLIQSLMDQNHTEEGPSNHEDENGSYRKVLWKHQKIKDLYRKGEQQREAEEMVNKLISLNQHPEVQHISFLELESFKKQISDYLHTVEKNIQKIKRNDDFTNLEPLPEPPKMSDKFMRLYWNEMNKQPSTSDLPSAELDDTDQL”, the “soluble on expression in E. coli” value was “not soluble”.
For “MGDPVEGKGGPQPRGGKKKDADDEKNAWEEGDFIDEKELKGALQLGVLKTADSVALRAGERNGLDMVVEEDVVSQVGALVWDTVAQDWADDLARFVAHAGRQRVNMDDISLLTRRNPDLLRAACELAGVDCPQETSGGTKGKPRKRKKDDVTVAPMLRAAPSAPNSQNAPLLAPIQEEDDENDDDDEITILDDQILHTPQQKSYSKKAKFSEEEAPSSRKRISTSTPKTTAERTLKFPDEITPIRQPNDLQEIVVFNRANLSAIEEEEQQDSFDAFGTTGGNDSSSKTITNTSSLLRQAEEHRSSIVEPTKDRIEKERLDRLVPDDEEFENASVDSFDNFNAEPDPAPAPALAPVPEKRTSVFSKKICSFDFDDDDGDDSFDEPVVVVAEVPKLPVQQQKTPKASGSESKKKPEKRPESSTPSVFSKKNKTIQLDDHDSFDDFDFGI”, the “soluble on expression in E. coli” value was “not soluble”.
In the case of “MSSDPDKMMSKADKMTKLTLTRWSADWRGATELYEQAANGFRASNKYEKAKVALEKASKGQEMQASPWDAAKHMESAAALAQKLSIWNEVADFYRKASELYVECGRAQPASDALGKAARALEDVKPDDAIQLYTDACEILEEDGRDQMAFDLYRACANVYIKLEKFTDAATFFLRLGVAADKCDATNSQCKAYLSAIILYLYAHDLQQAEKCYNDCSQIDAFLKSDQSRSASRLLTAYNEGDIEEIKKVASASTVSNLDHMIIKLARKLPTGDVTAIQMNTNDDLDEDDLT”, the “soluble on expression in E. coli” value is reported as “soluble”.
For “LRSRRKPSSRIGRRPSTTQDRISTVGIELFTEQGFDATSVDEVAEASGIARRTLFRYFPSKNAIPWGDFDAHLAEMRAQLAAQPDDIPIVDGLTAALLQFNAFPASEEINHRKRMGLILRVPALQAYSVVMYEGWRNVIAEYVASRLGTSPTDHVPRTVGYLLLGVAMSAYEQWLDDDSLELNELLASGMQSLYDGLSSLGEPDTRT”, the “soluble on expression in E. coli” value was “soluble”.
For “MSVNMDELRHQVMINQFVLAAGCAADQAKQLLQAAHWQFETALSTFFQETNIPNSHHHH”, the “soluble on expression in E. coli” value was “soluble”.
For “EEGLSGSKTFKIITKDYDIMNKEIKERLGRYCTFTKVTIDEENNSFVEISCVINKLEEQKLKEIINDVDPDAFIAIYDTAEVKAGNMKKSDIY”, the “soluble on expression in E. coli” value was “soluble”.
For “MRQIETQQLEAETSFTERIAEDRVKCAAQRESLERQLQDLTATDNKLSEQKRDWEERQEKAYDELMSYLENEDVDSAGTQFGDHFNSLIKSMNNLSHDSMNGQFNSLKNNLDELNIEKKQLEVAIADQSSTISEMIPSLRPTCGATYKERNTLRIIFHYQVAKLRSEYQKCRLQEEALKARLST”, the “soluble on expression in E. coli” value was “not soluble”.
With “MASKITQPDKYSGFLNNYSDLKETTSATGKPVLRWVDPSFDQSKYDSIVWNPITYYPVPKPSTQVGQKVLDKILNYTNTEMKEAIAQRKPLVTTAGPRSLIFRGAITGVDTSKEGLQFYEVVPVALVVAGTQMATGHRTMDTRLYFEGELIDAATNKPVIKVVRQGEGKDLNNESTPMAFENIKQVIDDMATDATMFDVNKKLEHHHHHH” the “soluble on expression in E. coli” value was “soluble”.
